In PMC4748275, “SpyRing interrogation: analyzing how enzyme resilience can be achieved with phytase and distinct cyclization chemistries” (Scientific Reports, 2016):

System: O=C(Cc1cccs1)N[C@@H]1C(=O)N2C(C(=O)O)=C(/C=C/c3ccc([N+](=O)[O-])cc3[N+](=O)[O-])CS[C@H]12
Test: purified protein
Conditions: 50 mM NaH2PO4 pH 7.0, 0.1% BSA, 30 °C, 10-100 μM nitrocefin

BLA (TEM-1 β-lactamase) (Escherichia coli)
Km: 120 ± 3 µM
kcat: 1200 ± 30 s⁻¹
